Reference: patent publication US20160122417A1

Target: wild-type human EGFR from A431 cells (human) (UniProt P00533)
Experiment: scFv-linked agarose beads incubated with A431 cell lysate; captured EGFR detected with anti-EGFR antibody cocktail, bead fluorescence normalized to the U87-EGFRvIII lysate signal

With “MR1 scFv, azide-functionalized and immobilized on DBCO-functionalized agarose beads” as the substance, how does the percent reduction in A431 lysate EGFR binding signal relative to U87-EGFRvIII lysate signal read?
The percent reduction in A431 lysate EGFR binding signal relative to U87-EGFRvIII lysate signal was 85%.
